Test results taken from the DeepSol protein solubility set.

Experiment: soluble on expression in E. coli; label from the status in PepcDB or PDB records

| Sequence | soluble on expression in E. coli |
| --- | --- |
| MIESNHVVLWNRCLEVIKDNVPETTYNTWFAPIVPLKYEDKTLIVQIPSQFFYEILEEKFVDLLRKTLYKAIGEGTKLMYNVMVDKTSIPNQTVNLEASNRSTAVTPKSIVGGNKAPSFLKAPAVQDLDPHLNPNYNFENFIEGYSNKLSRSVAEAVAQNPAGTAFNPLFLYGASGVGKTHLANAIGTKIKELYADKRVLYVSAHLFQVQYTDSVRNNTTNDFINFYQTIDVLIIDDIQEFAGVTKTQNTFFHIFNHLHQNGKQLILTSDRAPVLLQGMEERLLTRFKWGMVAELEKPTVELRKNILRNKIHRDGLQFPPEVIDYIAENVNESVRDLEGIVIAIMARSTIFNKEIDLDLAQHIVHGVVHNETKAVTIDDILKVVCKHFDLEASAIHTKSRKREVVQARQIAMYLAKNYTDFSTSKIGKFIGNKDHATVLHACKTVKGQLEVDKSFQAEVQEIESLLKKKALEHHHHHH | soluble |
| MIETPYYLIDKAKLTRNMERIAHVREKSGAKALLALKCFATWSVFDLMRDYMDGTTSSSLFEVRLGRERFGKETHAYSVAYGDNEIDEVVSHADKIIFNSISQLERFADKAAGIARGLRLNPQVSSSSFDLADPARPFSRLGEWDVPKVERVMDRINGFMIHNNCENKDFGLFDRMLGEIEERFGALIARVDWVSLGGGIHFTGDDYPVDAFSARLRAFSDRYGVQIYLEPGEASITKSTTLEVTVLDTLYNGKNLAIVDSSIEAHMLDLLIYRETAKVLPNEGSHSYMICGKSCLAGDVFGEFRFAEELKVGDRISFQDAAGYTMVKKNWFNGVKMPAIAIRELDGSVRTVREFTYADYEQSLS | soluble |
| MIEVAEIIAREIRRGKIVEIGVGFYLEVAKRLRESGIDILVVDINEKAINYARKQGIKGVVDDIFNPTLGIYKDAKAIYSIRPAPEMMKPLLDLARKLKIPLYIVPLTGDRTPNGMKLINYKGIPIYKWEP | soluble |
| MIFEQGIEIKASATVVEQCFTDLDLMHLWLNPALRCEPIGQWSTAIGGRSRFTIQIPLLKPSLKSVVVERSPGLVVWQFKGFFQGQDRWECRPLEEGTYLLNRFEFTVPNPVVQWGFQMFAARWTSADMQAQLRRLKQVAEREYINSLEHHHHHH | not soluble |
| MIFRKFLNFLKPYKMRTDPIIFVIGCTGTGKSDLGVAIAKKYGGEVISVDSMQFYKGLDIATNKITEEESEGIQHHMMSFLNPSESSSYNVHSFREVTLDLIKKIRARSKIPVIVGGTTYYAESVLYENNLIETNTSDDVDSKSRTSSESSSEDTEEGISNQELWDELKKIDEKSALLLHPNNRYRVQRALQIFRETGIRKSELVEKQKSDETVDLGGRLRFDNSLVIFMDATPEVLEERLDGRVDKMIKLGLKNELIEFYNEHAEYINHSKYGVMQCIGLKEFVPWLNLDPSERDTLNGDKLFKQGCDDVKLHTRQYARRQRRWYRSRLLKRSDGDRKMASTKMLDTSDKYRIISDGMDIVDQWMNGIDLFEDISTDTNPILKGSDANILLNCEICNISMTGKDNWQKHIDGKKHKHHAKQKKLAETRT | not soluble |
| MIFRRSRPGTIGAVTLLCASLLAMPASSACTRFVYHGANDEVITARSMDWKVDVGTNLWAFPRGMQRSGQAGPNSIQWTSKHGSVIASGYDISTTDGMNEAGLVANVLWLAESSYPEYDGKTPGLTLAAWAQYVLDNFASVREAVDTLASEPFTVVTDNVPGEQRPATLHLSLSDASGDSAIIEYIDGKQVIHHNRAYQVMTNSPTFDKQLALNEYWKQIGGTVMLPGTNRASDRYARAYFYVNAIPKSEDPVEAIASVFSVIRNVSVPYGITTPDQPNISSTRWRTVADHKRKRYFFESALTPNIFWIDLGALDFSAESGKVMKLDLGPDQAHIYSGQANAHFEQAAPFKFLGL | not soluble |
| MIGSGSQRKIGIVIKALLDQAEELDIINKNKIRCTDIPRQGKAERRYLTIRGIDRLLAAAIPMNEVALMRNVLLFTGLRPREAKGLKVKDLDPMRGRLSIRRDVDDLGNPDETKTRNHRGVPIGGDLLFDLDDQAEGKQPHDWLLTDETGHV | not soluble |
| MIHRIKDEFVNVYIIDRGDHLVLIDTGIESTCEKILKKIEELGKPLKTVIITHYHLDHTGSLKCVKDGTGAKVVAHEEEVKAIEEKTGVRVDVPVKDGDVVEGLKVFHMPGHTRGSICLLDEESGALFVGDLMVERDGKLYEVPQQYSEDPMMNRERIKELLNIEFKAIYPAHGEPVLENAKEKVKELVESFSKGETN | soluble |
| MIIDGHTHVILPVEKHIKIMDEAGVDKTILFSTSIHPETAVNLRDVKKEMKKLNDVVNGKTNSMIDVRRNSIKELTNVIQAYPSRYVGFGNVPVGLSENDTNSYIEENIVNNKLVGIGELTPASGQIKSLKPIFKYSMDSGSLPIWIHAFNPLVLQDIKEIAELCKAFPKVPVILGHMGGSNWMTAVELAKEIQNLYLDTSAYFSTFVLKIVINELPLKCIFGTDMPFGDLQLSIEAIKKMSNDSYVANAVLGDNISRLLNIMAGDPLEHHHHHH | not soluble |
| MIIPALDLIDGTVVRLHQGDYGKQRDYGNDPLPRLQDYAAQGAEVLHLVDLTGAKDPAKRQIPLIKTLVAGVNVPVQVGGGVRSEEDVAALLEAGVARVVVGSTAVKSQDMVKGWFERFGADALVLALDVRIDEQGNKQVAVSGWQENSGVSLEQLVETYLPVGLKHVLCTDISRDGTLAGSNVSLYEEVCARYPQVAFQSSGGIGDIDDVAALRGTGVRGVIVGRALLEGKFTVKEAIACWQNA | soluble |
| MIIRDENYFTDKYELTRTHSEVLEAVKVVKPGKTLDLGCGNGRNSLYLAANGYDVDAWDKNAMSIANVERIKSIENLDNLHTRVVDLNNLTFDRQYDFILSTVVLMFLEAKTIPGLIANMQRCTKPGGYNLIVAAMDTADYPCTVGFPFAFKEGELRRYYEGWERVKYNEDVGELHRTDANGNRIKLRFATMLARKKLEHHHHHH | not soluble |
| MIITTTNGIEGKRVVEYKGIVCGEVISGVDFIKDFAAGLTNFFGGRSKSYEGELIEAREGAIREMKERAIQMGANAIIGVDIDYEVLGQGGNMLMVTASGTAVVIE | soluble |
| MIITVTAFKGGVGKTTSSIHLAAYLNNKAPTILIDGDLNRSALLWASHEKLDFPVVDEREGLKAARNYEHIVVDTPARPEIEEIRSLARGCDLMILPTSPDALSMGALQANIQTFKQLNIPNFRILMTIVPPKPSTAGTEAKEYLQSLGLPVFKRMITRYAAFPKAALEGCVVRDVKGDRYAGAGWNDYKTVGGEIYGLEHHHHHH | soluble |
| MIIYVSACRHAVCSETVLDVLGNVSEKMKKGIELARSVAHLELCQDKITFQRRYVAIEFDEDELLDGKSSILAVAVSIYFAIVGLRVPSDLMITGSLNLKGTVIPISGLDKTVKVIKLRITLSGSSSA | not soluble |
| MIKDVHRCFVIACIPGKKPYTLALSDFISATAACFKSGIPLKTLKESLENMKETYFRPLKVEEFELLRTWLTLVYKTLKEVLFPLTENKRGICDTDDSIYDEFVKSIVTAIREGYSMEKIRLEQVVTNTKTQPRTEFESALLSQSTRIVVQTVQIAKEFSSEQ | not soluble |
| MIKIELKNKDNQIITGRIDHEKPEAPFVAEGDTLAVLAIKQYLYQVGDKIVVTYTGATPYLMVQLDETLAPSLIYLKEKVWEYQIPLEESARKAFVDTAFHSARHQIMVRQAHTFEKDNYQNLSMNTHDQKEYSGAYPHAYANVETRDDAVFFAKNAIDSKFGNLSHGSYPFASWGINQKKEAQLTIDFGRPVETDWIRLLFRADYPHDSYWEEVTLAFSDGEERVVATTNTTCFQEIKFPMKTTQTLTLKCLRKALDSSPFPALTQIEVFGRNK | soluble |
| MIKINISQNFLVAKGHALFAEKGKDIVCAAISGIIFGGVAWFEPDKIEFTENKLVPSIALKLIDPTPNVAVAFSVITVQLKAIANSYPNHIVINEESYE | soluble |
| MIKKLDVVAAIIECDGKILLAQRPAHADQAGLWEFAGGKVEPGETQPQALIRELREELGIDATPGVYIASHQRDVSGRRIHLHAWHVPAFNGLIRALEHQALAWCTPEEALEYPLAPADIPLLQAFIALRDARLTDSC | not soluble |
| MIKLSPIDKYKQDLTRDDFLFDAAQENAVIHLQRLYDDLQSKPLAVSGFKKVLNRWKKVYKKQEQEPIKGLYFWGGVGRGKTYLVDTFFESLPFNNKMRVHFHRFMHRVHQELKSLSGQSDPLKIIAKKFADETQIICFDEFFVSDITDAMILGTLFEELFAHNVTLVATSNIIPDELYRNGLQRERFLPAIKLINKHTLIVNVDSGVDYRLRTLEQAEIFHYPLDAQADENLKHYFKQLSTDEGKSGQSIEIHNRPLKTVLVSDGVVYFDFSVLCESARSQGDYMEISQLYHTVLMANVKEMGPDSDDTTRRFIALVDEFYERNVKLIMSAELPLDDLYSGGRLAFEFKRCLSRLQEMQSHDYLASEHLPLEHHHHHH | not soluble |
| MIKRPIHLSHDFLAEVIDKEAITLDATMGNGNDTVFLAKSSKKVYAFDIQEEAIAKTKAKLTEQGISNAELILDGHENLEQYVHTPLRAAIFNLGYLPSADKTVITKPHTTIKAIKNVLDILEVGGRLSLMVYYGHDGGKSEKDAVIAFVEQLPQNNFATMLYQPLNQVNTPPFLIMVEKLQSYENEV | not soluble |
| MIKSITIRTSREFEIIDITKEVERVVRESNVKSGIVVVFTRHTTTALTINENESGLKRDIEEILSKLVPKGMNYFHDRIDNNAHSHLRGILLGPSLTIPVEDGRLLLGTWQSILFVELDGPRTREVYVKVCECLEHHHHHH | soluble |
| MILLIGATGNIGLPIVKSLQKKGAEVRLLVHNEKSSAKIQALGQMEIFIGDFRNDSDLRESMKGCSSVFHVVPPFTKDEAEIGYRVIENARHAGVEHIVFNSVLHPQLRKMEHHAQKLLVEEAVIESGLAFNIIQPAMLMQNLLMVWRTIRENGIYPVISSPDKKMSLIDSEDIGEAVANILTDPSLRNATFELAGSDLLTYKEMALIISEELNQPVKVVPVDDKGREELARKQGMSSYAIHAFLKMAKHYDEHGFSGSNPLVLTSILKRPPNSYRDFIRRLIAEDGGI | not soluble |
| MINFHPNVKRAISQAAQKYGLPESFLERVAMIESKGNPNARNSKSSAGGLYQFLDSTAKQYQLNNKFDPFQATDAMARLTKDNTRYLATALGREPSQAELYLAHQQGPAGAVKLIKNPNVPASQLLGRQAVVLNGGNVEATAGDFMNHIYGLYNKTGEASNGRARQSWGNGQSAANEVVPLRGVERFQKAIQGAQARKPLMAYDTPLHENTRFQGQGIDAGALKKSVMSLVDLMRRNKDAQNQQIEMAHQQMMQQPMMTGFSQSSAHPVDLTLLIDPSRRNPVRSYGQQKKQQLQEELLRRTGAYHV | not soluble |
| MIPEQRREQILRQLRKHQVLSVHQLMEMFDCSHMTVRRDIALLEQEGRAHSVTGGVRIASQLHSEPSHQSKAVVELPQKQAMAKLAASLLHADMTVYLDAGTSTLEIVHYIKALSGMTVVTNDFGVAQALMDAPQVTVIHTGGQLDHSNHSCVGGLAVATLRQVVTDVAFISTSSWDLRRGITTPSALKVEVKQVAMQSATQVVLVASSSKYGTFSMYKIAGLEQFDIIISDAALAPAAADGIRKHGVELLLPAQSLEHHHHHH | not soluble |
| MIPVFNITSNRGRLLQQISVGDIWGVGRQWANKLISRGIHTAYDLAMTNPHLLKKCFNAVLMRTAMELQGIACGGLEVLEHHHHHH | not soluble |
